Data reported in patent publication US20040071707A1, “Modulation of cell growth” (priority 2000, published 2004).

B1: kringle 2: kringle 2 domain of tPA purified from K2P by limited elastase digestion and lysine-Sepharose (protein)
chain: CYFGNGSAYRGTHSLTESGASCLPWNSMILIGKVYTAQNPSAQALGLGKHNYCRNPDGDAKPWCHVLKNRRLTWEYCDVPSC
B2: K2P-PMSF: proteolytically inactivated K2P (protease domain inactivated with PMSF) (protein)
chain: SYQVICRDEKTQMIYQQHQSWLRPVLRSNRVEYCWCNSGRAQCHSVPVKSCSEPRCFNGGTCQQALYFSDFVCQCPEGFAGKCCEIDTRATCYEDQGISYRGTWSTAESGAECTNWNSSALAQKPYSGRRPDAIRLGLGNHNYCRNPDRDSKPWCYVFKAGKYSSEFCSTPACSEGNSDCYFGNGSAYRGTHSLTESGASCLPWNSMILIGKVYTAQNPSAQALGLGKHNYCRNPDGDAKPWCHVLKNRRLTWEYCDVPSCSTCGLRQYSQPQFRIKGGLFADIASHPWQAAIFAKHRRSPGERFLCGGILISSCWILSAAHCFQERFPPHHLTVILGRTYRVVPGEEEQKFEVEKYIVHKEFDDDTYDNDIALLQLKSDSSRCAQESSVVRTVCLPPADLQLPDWTECELSGYGKHEALSPFYSERLKEAHVRLYPSSRCTSQHLLNRTVTDNMLCAGDTRSGGPQANLHDACQGDSGGPLVCLNDGRMTLVGIISWGLGCGQKDVPGVYTKVTNYLDWIRDNMRP
B3: rsctPA: Recombinant single chain tPA (protein)
chain: B2 chain

Legend:
[1] = tested on: HUVEC; experiment: In vitro endothelial cell proliferation assay; format: cell-based, Human; conditions: for bFGF induced EC growth: 10 ng/mL bFGF, non-toxic doses (<40 μg/mL) for K2P fragments; for effect on basal HUVEC/EC growth (substance alone): M199 with 2% FBS, 4 days, colorimetric
Description: Human umbilical vein endothelial cells (HUVEC) were purchased from Clonetics or isolated from umbilical vein cords by mild collagenase treatment as described and cultured in M199 with Earle's salts (Sigma) with 20% heat inactivated fetal bovine serum (Sigma), 100 IU/mL penicillin 100 μg/mL streptomycin (Gibco), 250 ng/mL fungizone (Gibco), 2 mM glutamine (Gibco), 5 IU/mL heparin (Sigma) and 50 μg/mL ECGS (Technoclone, Vienna, Austria). Human vascular smooth muscle cells (HVSMC) were isolated as described.
3×10^3 cells were plated in 96-well plates and allowed to attach overnight. Growth was arrested by incubation with 100 μL reduced growth medium (M199 with 2% FBS) for 24 h. Thereafter anti-tPA antibodies and other reagents were added to wells. K2P (Reteplase), anti-kringle 2 (7VPA) and anti-finger/EGF antibodies (3VPA and 6VPA) were a gift from Technoclone, Vienna, Austria. Anti-kringle 1 (PAM-2), anti-kringle 2 (ESP1) and anti-protease (374B and ESP2) antibodies were purchased from American Diagnostica, Alpha Labs, UK. D-mannitol and LY294002 were obtained from Sigma. VEGF121 and bFGF were purchased from R&D Systems Inc., UK. Recombinant single chain tPA (rsctPA) was obtained from Boehringher Ingelheim. The mutant alatPA was kindly provided by Prof. Roger Lijnen (Center for Molecular and Vascular Biology, Leuven, Belgium). Aprotinin was purchased from Boehringer Mannheim. The tPA peptides (tPA I and tPA II) corresponding to residues 7-17 and 15-26 respectively were synthesized by the Clinical Sciences Centre peptide synthesis facility at Hammersmith and the ICRF peptide unit. Rp-cAMPS and Lavendustin A were obtained from Calbiochem, UK. After 4 days of incubation cell number was quantified colorimetrically by the addition of 20 μL CellTiter 96 AQueous One Solution Cell Proliferation Assay (Promega) at 492 nm and 620 nm reference filter. Background absorbance was determined with substrate alone and subtracted from all wells.
HUVEC were plated at 1×10^5 cells in 12 well plates overnight. Medium was replaced with reduced growth medium overnight followed by addition of anti-K2 antibody. Control wells contained M199 and 2% FBS alone. After 3 days incubation cells were counted in a hemocytometer.

[2] = tested on: HVSMC; experiment: HVSMC growth (proliferation assay); format: cell-based, Human
Description: (A and B). HUVEC or HVSMC cultures were incubated with increasing concentrations of PMSF inactivated K2P (K2P-PMSF) or control treated K2P either in the absence (A) or presence (B) of 10 ng/mL bFGF at the concentrations indicated. Angiostatin was included as a positive control for inhibition of bFGF mediated cell growth. HUVEC results represent mean of at least three independent experiments with three different batches of HUVEC. Experiments with HVSMC were repeated twice. (C and D). HUVEC were treated with 100 μg/mL K2P-PMSF and increasing concentrations of either anti-kringle 2 antibody, 7VPA (C) or rsctPA (D) for four days as indicated. Control wells contained M199 and 2% FBS alone. Data represent mean±SE of duplicate experiments with two different batches of HUVEC. […]
3×10^3 cells were plated in 96-well plates and allowed to attach overnight. […] After 4 days of incubation cell number was quantified colorimetrically by the addition of 20 μL CellTiter 96 AQueous One Solution Cell Proliferation Assay (Promega) at 492 nm and 620 nm reference filter. Background absorbance was determined with substrate alone and subtracted from all wells.

Molecule	VEGF stimulated HUVEC growth ([1]; 10 ng/mL VEGF)	bFGF induced EC growth [1]	effect on basal HUVEC/EC growth (substance alone) [1]	concentration giving 50% inhibition ([1]; HUVEC growth, bFGF 10 ng/mL (FIG. 4B)) [µg/mL]	HVSMC growth in the presence of bFGF ([2]; 10 ng/mL bFGF)	basal HVSMC growth, % of control ([2]; highest concentration used (100 μg/mL))
B1	significantly inhibited	significantly inhibited	significantly inhibited	–	–	–
B2	–	completely inhibited	inhibited	30	No inhibition	65 % of control
B3	–	–	neither rsctPA nor alatPA could stimulate EC growth	–	–	–
